# Measured values taken from patent US20170306005A1 (NASCIENT, published 2017).
# T1: human tenascin-C rCd4-His-FBG (rat; human, UniProt P05540 207-392, limits assumed)
# T1 construct: domain: domains 3 and 4; C-terminal FBG fusion; biotinylated in the ELISA and HTRF screens; also called Hu TNC; human TNC rCd4-His-FBG; not shown: 6His tag
# T1 sequence (chain (part 1 of 2)): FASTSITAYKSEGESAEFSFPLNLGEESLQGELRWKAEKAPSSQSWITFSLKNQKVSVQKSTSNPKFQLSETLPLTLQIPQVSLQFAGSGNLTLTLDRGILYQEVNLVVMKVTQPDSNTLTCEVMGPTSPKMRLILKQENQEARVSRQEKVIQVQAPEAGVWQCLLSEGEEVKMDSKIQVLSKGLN
# T1 sequence (chain (part 2 of 2)): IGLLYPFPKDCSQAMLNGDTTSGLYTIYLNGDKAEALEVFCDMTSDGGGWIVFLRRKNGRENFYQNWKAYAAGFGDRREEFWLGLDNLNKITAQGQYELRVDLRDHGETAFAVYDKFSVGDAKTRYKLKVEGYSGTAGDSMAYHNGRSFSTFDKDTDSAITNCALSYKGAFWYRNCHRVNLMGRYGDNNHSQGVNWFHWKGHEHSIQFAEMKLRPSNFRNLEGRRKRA
# T2: mouse tenascin-C rCd4-His-FBG (rat; mouse, UniProt P05540 207-392, limits assumed)
# T2 construct: domain: domains 3 and 4; C-terminal FBG fusion; biotinylated in the ELISA screen; also called Mu TNC; mouse TNC rCd4-His-FBG; not shown: 6His tag
# T2 sequence (chain (part 1 of 2)): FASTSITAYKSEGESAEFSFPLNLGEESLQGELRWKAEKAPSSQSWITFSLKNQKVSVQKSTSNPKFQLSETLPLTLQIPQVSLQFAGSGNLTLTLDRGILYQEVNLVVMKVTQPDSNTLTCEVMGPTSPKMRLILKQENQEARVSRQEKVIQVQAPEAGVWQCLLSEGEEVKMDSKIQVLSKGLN
# T2 sequence (chain (part 2 of 2)): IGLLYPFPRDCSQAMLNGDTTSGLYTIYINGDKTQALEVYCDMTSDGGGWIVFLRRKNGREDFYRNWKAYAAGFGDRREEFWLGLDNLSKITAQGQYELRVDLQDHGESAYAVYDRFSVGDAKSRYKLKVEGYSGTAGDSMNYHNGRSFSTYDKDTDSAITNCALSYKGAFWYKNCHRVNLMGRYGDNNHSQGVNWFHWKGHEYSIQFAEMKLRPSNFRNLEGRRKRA
# T3: human tenascin-R rCd4-His-FBG (rat; human, UniProt P05540 207-392, limits assumed)
# T3 construct: domain: domains 3 and 4; C-terminal FBG fusion; also called Hu TNR; human TNR rCd4-His-FBG; not shown: 6His tag
# T3 sequence (chain (part 1 of 2)): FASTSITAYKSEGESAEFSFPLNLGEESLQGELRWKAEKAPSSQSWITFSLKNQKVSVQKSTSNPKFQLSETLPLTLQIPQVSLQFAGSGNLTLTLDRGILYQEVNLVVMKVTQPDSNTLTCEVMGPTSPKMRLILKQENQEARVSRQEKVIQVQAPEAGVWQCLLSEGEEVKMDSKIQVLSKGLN
# T3 sequence (chain (part 2 of 2)): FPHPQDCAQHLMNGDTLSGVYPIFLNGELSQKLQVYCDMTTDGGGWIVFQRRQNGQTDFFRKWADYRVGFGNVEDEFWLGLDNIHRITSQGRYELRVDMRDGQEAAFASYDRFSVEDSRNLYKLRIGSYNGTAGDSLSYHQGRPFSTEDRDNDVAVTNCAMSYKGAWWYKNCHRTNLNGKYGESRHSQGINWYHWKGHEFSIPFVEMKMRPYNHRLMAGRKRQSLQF
# Key:
# Experiment in all cases: SPR off-rate screen, captured IgG4 supernatant, 25 C
# [1] = biological target: T1, human tenascin-C rCd4-His-FBG
# Experimental: (§1) The 31 scFv of interest were sub-cloned into a human IgG4 expression vector for generation of antibodies as human IgG4 with a hinge-stabilising mutation (S241P; Angal et al, 1993). […] Briefly, surface plasmon resonance (SPR) experiments were performed using a BIAcore T100 instrument and followed the protocol according to the Human antibody capture kit protocol (GE, BR-1008-39). For off-rate screening, 10,000 response units (RU) of anti-human Fc IgG (GE, BR-1008-39) was immobilised on flow-cells (FC1 and FC2) of a Series 5 CM5 dextran sensor chip (BR-1005-30) using EDC/NHS cross-linking chemistry according to the amine coupling kit protocol (GE, BR-1000-50). Culture supernatants containing expressed IgG4 were diluted 1:2 with 2×PBS-T and injected into FC2 (flowrate 5 μl/min, 60 s contact time) to enable antibody capture at 25° C. […] A fixed concentration of antigen (15 nM of human and mouse TNC rCd4-His-FBG and 100 nM of human TNR rCd4-His-FBG) was injected with a flow-path via FC 1 (reference flow cell) and FC 2 (antibody capture flow cell), with a flow rate of 30 μl/min, and the association and dissociation phases measured over 1 and 5 min time periods, respectively. Regeneration of the binding surface employed 3M MgCl₂ with 30 s contact time. Off rates were determined by reference cell subtraction and fitting the sensogram experimental data assuming a 1:1 interaction using BIAevaluation software (GE, BR-1005-97).
# [2] = biological target: T2, mouse tenascin-C rCd4-His-FBG
# Experimental: as §1
# [3] = biological target: T3, human tenascin-R rCd4-His-FBG
# Experimental: as §1
koff [1] [s⁻¹],koff [2] [s⁻¹],koff [3] [s⁻¹],Binder
1.25e-05,1.39e-05,0.001,"160_01_G2 human IgG4 (antibody, V domains shown, human IgG4 with hinge S241P; also called Antibody 160 01 G2 (derived from 2A5)) VH: EVRLVQSGAEVKKPGASVKVSCKVSGYTLTELSMHWVRQAPGKGLEWMGGFDPEDGETIYAQKFQGRVTMTEDTSTDTAYMELSSLRSEDTAVYYCATYTLDNMALTYWGQGTLVTVSS VL: DIQMTQSPASLPTSVGDRVTITCRASQYIQGFLNWYQQKPGKAPRLLIYAASTLQDGVPSRFSGSGYGTDFTLTISSLQPEDFATYYCQQSYSTPWTFGQGTKVEIKR"
1.4e-07,3.9e-06,0.0043,"165_13_D1 human IgG4 (antibody, V domains shown, human IgG4 with hinge S241P) VH: QVQLVESGGGLVQPGRSLRLSCAASGFTFDDYAMHWVRQAPGKGLEWVSGISGSGGSTYYADSVKGRFTISRDNAKNSLYLQMNSLRAEDTALYYCAKGTRGEGDTFDIWGQGTMVTVSS VL: DIQMTQSPASLPTPVGDRVTITCRASQYIQGFLNWYQQKPGKAPKLLIYDASNLETGVPSRFSGSGSGTDFTLTISSLQPEDFATYYCQQSYSTPQTFGQGTKVDIKR"
1.3e-06,4.3e-06,0.0042,"161_01_A12 human IgG4 (antibody, V domains shown, human IgG4 with hinge S241P; also called Antibody 161 01 A12 (derived from 2A5)) VH: EVRLVQSGAEVKKPGASVKVSCKVSGYTLTELSMHWVRQAPGKGLEWMGGFDPEDGETIYAQKFQGRVTMTEDTSTDTAYMELSSLRSEDTAVYYCATAQPTALANTYWGQGTLVTVSS VL: DIQMTQSPASLPTSVGDRVTITCRASQYIQGFLNWYQQKPGKAPRLLIYAASTLQDGVPSRFSGSGYGTDFTLTISSLQPEDFATYYCQQSYSTPWTFGQGTKVEIKR"
1.17e-07,2.3e-07,0.00029,"161_01_C09 human IgG4 (antibody, V domains shown, human IgG4 with hinge S241P; also called Antibody 161 01 C09 (derived from 2A5)) VH: EVRLVQSGAEVKKPGASVKVSCKVSGYTLTELSMHWVRQAPGKGLEWMGGFDPEDGETIYAQKFQGRVTMTEDTSTDTAYMELSSLRSEDTAVYYCATAQLPYLAQTYWGQGTLVTVSS VL: DIQMTQSPASLPTSVGDRVTITCRASQYIQGFLNWYQQKPGKAPRLLIYAASTLQDGVPSRFSGSGYGTDFTLTISSLQPEDFATYYCQQSYSTPWTFGQGTKVEIKR"
3.9e-07,1.06e-06,0.0064,"162_02_D3 human IgG4 (antibody, V domains shown, human IgG4 with hinge S241P; also called Antibody 162 02 D3 (derived from 2A5)) VH: EVRLVQSGAEVKKPGASVKVSCKVSGYTLTELSMHWVRQAPGKGLEWMGGFDPEDGETIYAQKFQGRVTMTEDTSTDTAYMELSSLRSEDTAVYYCATAQIHPLGLTYWGQGTLVTVSS VL: DIQMTQSPASLPTSVGDRVTITCRASQYIQGFLNWYQQKPGKAPRLLIYAASTLQDGVPSRFSGSGYGTDFTLTISSLQPEDFATYYCQQSYSTPWTFGQGTKVEIKR"
1.49e-06,0.002,0.635,"162_02_C3 human IgG4 (antibody, V domains shown, human IgG4 with hinge S241P; also called Antibody 162 02 C3 (derived from 2A5)) VH: EVRLVQSGAEVKKPGASVKVSCKVSGYTLTELSMHWVRQAPGKGLEWMGGFDPEDGETIYAQKFQGRVTMTEDTSTDTAYMELSSLRSEDTAVYYCATAQKETYALTYWGQGTLVTVSS VL: DIQMTQSPASLPTSVGDRVTITCRASQYIQGFLNWYQQKPGKAPRLLIYAASTLQDGVPSRFSGSGYGTDFTLTISSLQPEDFATYYCMQHYDGPWTFGQGTKVEIKR"
< 1e-05,0.00033,0.088,"162_02_F3 human IgG4 (antibody, V domains shown, human IgG4 with hinge S241P; also called Antibody 162 02 F3 (derived from 2A5)) VH: EVRLVQSGAEVKKPGASVKVSCKVSGYTLTELSMHWVRQAPGKGLEWMGGFDPEDGETIYAQKFQGRVTMTEDTSTDTAYMELSSLRSEDTAVYYCATAQKETYALTYWGQGTLVTVSS VL: DIQMTQSPASLPTSVGDRVTITCRASQYIQGFLNWYQQKPGKAPRLLIYAASTLQDGVPSRFSGSGYGTDFTLTISSLQPEDFATYYCQNQYRGPWTFGQGTKVEIKR"
2.5e-05,1.9e-06,0.0091,"161_01_H10 human IgG4 (antibody, V domains shown, human IgG4 with hinge S241P; also called Antibody 161 01 H10 (derived from 2A5)) VH: EVRLVQSGAEVKKPGASVKVSCKVSGYTLTELSMHWVRQAPGKGLEWMGGFDPEDGETIYAQKFQGRVTMTEDTSTDTAYMELSSLRSEDTAVYYCATAQPVWAPGTYWGQGTLVTVSS VL: DIQMTQSPASLPTSVGDRVTITCRASQYIQGFLNWYQQKPGKAPRLLIYAASTLQDGVPSRFSGSGYGTDFTLTISSLQPEDFATYYCQQSYSTPWTFGQGTKVEIKR"
2.8e-06,0.00171,0.0025,"161_01_F6 human IgG4 (antibody, V domains shown, human IgG4 with hinge S241P; also called 160_01_F6; Antibody 161 01 F6, also known as 160 01 F6 (derived from 2A5)) VH: EVRLVQSGAEVKKPGASVKVSCKVSGYTLTELSMHWVRQAPGKGLEWMGGFDPEDGETIYAQKFQGRVTMTEDTSTDTAYMELSSLRSEDTAVYYCATAQKENIANRHWGQGTLVTVSS VL: DIQMTQSPASLPTSVGDRVTITCRASQYIQGFLNWYQQKPGKAPRLLIYAASTLQDGVPSRFSGSGYGTDFTLTISSLQPEDFATYYCQQSYSTPWTFGQGTKVEIKR"
< 1e-05,0.000167,0.082,"162_02_H5 human IgG4 (antibody, V domains shown, human IgG4 with hinge S241P; also called Antibody 162 02 H5 (derived from 2A5)) VH: EVRLVQSGAEVKKPGASVKVSCKVSGYTLTELSMHWVRQAPGKGLEWMGGFDPEDGETIYAQKFQGRVTMTEDTSTDTAYMELSSLRSEDTAVYYCATAQKETYALTYWGQGTLVTVSS VL: DIQMTQSPASLPTSVGDRVTITCRASQYIQGFLNWYQQKPGKAPRLLIYAASTLQDGVPSRFSGSGYGTDFTLTISSLQPEDFATYYCQNQYTGPWTFGQGTKVEIKR"
5.3e-06,0.00024,0.028,"162_02_C6 human IgG4 (antibody, V domains shown, human IgG4 with hinge S241P; also called Antibody 162 02 C6 (derived from 2A5)) VH: EVRLVQSGAEVKKPGASVKVSCKVSGYTLTELSMHWVRQAPGKGLEWMGGFDPEDGETIYAQKFQGRVTMTEDTSTDTAYMELSSLRSEDTAVYYCATAQKETYALTYWGQGTLVTVSS VL: DIQMTQSPASLPTSVGDRVTITCRASQYIQGFLNWYQQKPGKAPRLLIYAASTLQDGVPSRFSGSGYGTDFTLTISSLQPEDFATYYCQNQYAGPWTFGQGTKVEIKR"
